Patent US20250382383A1

Target: soluble recombinant TGF-β1 (UniProt P01137)
Test: cell-based or functional assay

Chain of TGF-beta dominant negative receptor (TGFβ DNR) (P37173 23-194 limits assumed): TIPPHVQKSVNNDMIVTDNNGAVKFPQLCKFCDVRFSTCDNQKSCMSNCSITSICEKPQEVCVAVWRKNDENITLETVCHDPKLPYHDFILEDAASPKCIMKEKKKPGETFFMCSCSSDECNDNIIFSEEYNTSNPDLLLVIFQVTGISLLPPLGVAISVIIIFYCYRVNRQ
Chain of soluble recombinant TGF-β1 (P01137 279-390 limits assumed): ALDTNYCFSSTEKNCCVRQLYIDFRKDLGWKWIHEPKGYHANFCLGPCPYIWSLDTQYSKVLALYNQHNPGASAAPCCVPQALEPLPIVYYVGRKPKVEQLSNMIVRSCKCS

pSMAD2 (MFI/µg protein), TGFβ +; CAR-DNR T cells; Donor 1 (MFI/µg protein): 2210
pSMAD2 (MFI/µg protein), TGFβ +; Tri-2A T cells; Donor 1 (MFI/µg protein): 1970
pSMAD2 (MFI/µg protein), TGFβ +; Tri-2A T cells; Donor 2 (MFI/µg protein): 2080
pSMAD2 (MFI/µg protein), TGFβ +; Tri-2A T cells; Donor 3 (MFI/µg protein): 1730
pSMAD2 (MFI/µg protein), TGFβ +; Tri-IRES T cells; Donor 1 (MFI/µg protein): 3240
pSMAD2 (MFI/µg protein), TGFβ +; Tri-IRES T cells; Donor 2 (MFI/µg protein): 3400
pSMAD2 (MFI/µg protein), TGFβ +; Tri-IRES T cells; Donor 3 (MFI/µg protein): 2270
pSMAD2 (MFI/µg protein), TGFβ +; Tri-mSCV T cells; Donor 1 (MFI/µg protein): 2480
pSMAD2 (MFI/µg protein), TGFβ +; Tri-mSCV T cells; Donor 2 (MFI/µg protein): 1720
pSMAD2 (MFI/µg protein), TGFβ +; Tri-mSCV T cells; Donor 3 (MFI/µg protein): 1200
pSMAD2/3 (MFI CAR+), TGFb +; CAR-DNR T cells; Donor 1: 86.9 MFI
pSMAD2/3 (MFI CAR+), TGFb +; CAR-DNR T cells; Donor 2: 105 MFI
pSMAD2/3 (MFI CAR+), TGFb +; CAR-DNR T cells; Donor 3: 106 MFI
pSMAD2/3 (MFI CAR+), TGFb +; Tri-2A T cells; Donor 1: 106 MFI
pSMAD2/3 (MFI CAR+), TGFb +; Tri-2A T cells; Donor 2: 208 MFI
pSMAD2/3 (MFI CAR+), TGFb +; Tri-2A T cells; Donor 3: 189 MFI
pSMAD2/3 (MFI CAR+), TGFb +; Tri-IRES T cells; Donor 1: 70.6 MFI
pSMAD2/3 (MFI CAR+), TGFb +; Tri-IRES T cells; Donor 2: 89.7 MFI
pSMAD2/3 (MFI CAR+), TGFb +; Tri-IRES T cells; Donor 3: 89.4 MFI
pSMAD3 (MFI/µg protein), TGFβ +; CAR-DNR T cells; Donor 1 (MFI/µg protein): 621
pSMAD3 (MFI/µg protein), TGFβ +; Tri-2A T cells; Donor 1 (MFI/µg protein): 561
pSMAD3 (MFI/µg protein), TGFβ +; Tri-2A T cells; Donor 2 (MFI/µg protein): 488
pSMAD3 (MFI/µg protein), TGFβ +; Tri-2A T cells; Donor 3 (MFI/µg protein): 405
pSMAD3 (MFI/µg protein), TGFβ +; Tri-IRES T cells; Donor 1 (MFI/µg protein): 942
pSMAD3 (MFI/µg protein), TGFβ +; Tri-IRES T cells; Donor 2 (MFI/µg protein): 788
pSMAD3 (MFI/µg protein), TGFβ +; Tri-IRES T cells; Donor 3 (MFI/µg protein): 643
pSMAD3 (MFI/µg protein), TGFβ +; Tri-mSCV T cells; Donor 1 (MFI/µg protein): 660
pSMAD3 (MFI/µg protein), TGFβ +; Tri-mSCV T cells; Donor 2 (MFI/µg protein): 460
pSMAD3 (MFI/µg protein), TGFβ +; Tri-mSCV T cells; Donor 3 (MFI/µg protein): 377
Substance: TGF-beta dominant negative receptor (TGFβ DNR) (from UniProt P37173 23-194)
